Assay results reported in patent US20210388087A1 (Chugai, published 2021).
Numbering of substitutions follows the chain as printed. In names and notes the source's numbering stands. Blank lines part the entries; values can stand above or below the binder they belong to.

Key:
[1] = target: T1, Human CD137 ECD (human); experiment: single mutant vs template dBBDu183H
T1 construct: also called 4-1BB

[2] = target: T2, Human CD3eg linker (human); experiment: SPR; fold vs parent H183/L072
T2 construct: Single-chain construct; also called recombinant human CD3
T2 chain: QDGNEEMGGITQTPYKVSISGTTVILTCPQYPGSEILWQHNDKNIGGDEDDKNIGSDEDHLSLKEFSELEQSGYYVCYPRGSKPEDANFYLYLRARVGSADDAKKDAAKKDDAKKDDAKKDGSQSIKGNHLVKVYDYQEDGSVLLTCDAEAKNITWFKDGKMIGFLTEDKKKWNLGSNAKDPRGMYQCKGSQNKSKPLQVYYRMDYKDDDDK

T1 sequence (chain, as listed by the source limits assumed): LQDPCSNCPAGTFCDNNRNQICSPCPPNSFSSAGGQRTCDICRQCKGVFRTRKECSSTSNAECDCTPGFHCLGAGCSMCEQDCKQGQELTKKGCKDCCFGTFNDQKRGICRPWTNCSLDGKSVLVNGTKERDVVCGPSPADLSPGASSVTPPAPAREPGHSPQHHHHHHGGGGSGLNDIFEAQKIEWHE

B1: H183/L072 VH F27A (antibody, name in Kabat numbering, V domains shown)
VH: QVQLVESGGGLVQPGRSLRLSCAASGATFSNAWMHWVRQAPGKGLEWVAQIKDKGNAYAAYYAPSVKGRFTISRDDSKNSIYLQMNSLKTEDTAVYYCHYVHYASASTVLPAFGVDAWGQGTTVTVSS
VL: DIVMTQSPLSLPVTPGEPASISCQASQELVHMNRNTYLHWYQQKPGQAPRLLIYKVSNRFPGVPDRFSGSGSGTDFTLKISRVEAEDVGVYYCAQGTSVPFTFGQGTKLEIK
- fold change of affinity [1]: 0.3 fold

B4: H183/L072 VL V51T (antibody, name in Kabat numbering, V domains shown)
VH: B1 VH with A27F
VL: B1 VL with V56T
- fold change of affinity [2]: 0.2 fold

B5: H183/L072 VL V51S (antibody, name in Kabat numbering, V domains shown)
VH: B1 VH with A27F
VL: B1 VL with V56S
- fold change of affinity [2]: 0.3 fold

B8: H183/L072 VL V51R (antibody, name in Kabat numbering, V domains shown)
VH: B1 VH with A27F
VL: B1 VL with V56R
- fold change of affinity [2]: 0.9 fold

B9: H183/L072 VL V27cS (antibody, name in Kabat numbering, V domains shown)
VH: B1 VH with A27F
VL: B1 VL with V30S
- fold change of affinity [2]: 0 fold

B12: H183/L072 VH A32E (antibody, name in Kabat numbering, V domains shown)
VH: B1 VH with A27F, A32E
VL: B1 VL
- fold change of affinity [1]: 0.4 fold

B14: H183/L072 VL V27cY (antibody, name in Kabat numbering, V domains shown)
VH: B1 VH with A27F
VL: B1 VL with V30Y
- fold change of affinity [2]: 0.5 fold

B15: H183/L072 VL V51Q (antibody, name in Kabat numbering, V domains shown)
VH: B1 VH with A27F
VL: B1 VL with V56Q
- fold change of affinity [2]: 0.5 fold

B16: H183/L072 VL V94D (antibody, name in Kabat numbering, V domains shown)
VH: B1 VH with A27F
VL: B1 VL with V99D
- fold change of affinity [2]: 0.5 fold

B19: H183/L072 VL V51L (antibody, name in Kabat numbering, V domains shown)
VH: B1 VH with A27F
VL: B1 VL with V56L
- fold change of affinity [2]: 0.6 fold

B21: H183/L072 VL V51G (antibody, name in Kabat numbering, V domains shown)
VH: B1 VH with A27F
VL: B1 VL with V56G
- fold change of affinity [2]: 0.4 fold

B23: H183/L072 VL V51H (antibody, name in Kabat numbering, V domains shown)
VH: B1 VH with A27F
VL: B1 VL with V56H
- fold change of affinity [2]: 0.2 fold

B25: H183/L072 VL V51I (antibody, name in Kabat numbering, V domains shown)
VH: B1 VH with A27F
VL: B1 VL with V56I
- fold change of affinity [2]: 1.4 fold

B28: H183/L072 VL V27cT (antibody, name in Kabat numbering, V domains shown)
VH: B1 VH with A27F
VL: B1 VL with V30T
- fold change of affinity [2]: 0.8 fold

B31: H183/L072 VL V51D (antibody, name in Kabat numbering, V domains shown)
VH: B1 VH with A27F
VL: B1 VL with V56D
- fold change of affinity [2]: 0 fold

B34: H183/L072 VL V51M (antibody, name in Kabat numbering, V domains shown)
VH: B1 VH with A27F
VL: B1 VL with V56M
- fold change of affinity [2]: 0.5 fold

B35: H183/L072 VL V51E (antibody, name in Kabat numbering, V domains shown)
VH: B1 VH with A27F
VL: B1 VL with V56E
- fold change of affinity [2]: 0.4 fold

B39: H183/L072 VL V51A (antibody, name in Kabat numbering, V domains shown)
VH: B1 VH with A27F
VL: B1 VL with V56A
- fold change of affinity [2]: 0.6 fold

B43: H183/L072 VL V94A (antibody, name in Kabat numbering, V domains shown)
VH: B1 VH with A27F
VL: B1 VL with V99A
- fold change of affinity [2]: 1 fold

B44: H183/L072 VL V51K (antibody, name in Kabat numbering, V domains shown)
VH: B1 VH with A27F
VL: B1 VL with V56K
- fold change of affinity [2]: 0.8 fold

B45: H183/L072 VL V27cW (antibody, name in Kabat numbering, V domains shown)
VH: B1 VH with A27F
VL: B1 VL with V30W
- fold change of affinity [2]: 0.3 fold

Continued, values first:

- fold change of affinity [2]: 0 fold
B2: H183/L072 VL Y32Q (antibody, name in Kabat numbering, V domains shown)
VH: B1 VH with A27F
VL: B1 VL with Y37Q

- fold change of affinity [2]: 1.5 fold
B3: H183/L072 VL V94P (antibody, name in Kabat numbering, V domains shown)
VH: B1 VH with A27F
VL: B1 VL with V99P

- fold change of affinity [2]: 0.7 fold
B6: H183/L072 VL V94S (antibody, name in Kabat numbering, V domains shown)
VH: B1 VH with A27F
VL: B1 VL with V99S

- fold change of affinity [2]: 0.5 fold
B7: H183/L072 VL V94R (antibody, name in Kabat numbering, V domains shown)
VH: B1 VH with A27F
VL: B1 VL with V99R

- fold change of affinity [2]: 0.8 fold
B10: H183/L072 VL V94I (antibody, name in Kabat numbering, V domains shown)
VH: B1 VH with A27F
VL: B1 VL with V99I

- fold change of affinity [2]: 0 fold
B11: H183/L072 VL Y32T (antibody, name in Kabat numbering, V domains shown)
VH: B1 VH with A27F
VL: B1 VL with Y37T

- fold change of affinity [2]: 0.4 fold
B13: H183/L072 VL V94K (antibody, name in Kabat numbering, V domains shown)
VH: B1 VH with A27F
VL: B1 VL with V99K

- fold change of affinity [2]: 0.8 fold
B17: H183/L072 VL V94H (antibody, name in Kabat numbering, V domains shown)
VH: B1 VH with A27F
VL: B1 VL with V99H

- fold change of affinity [2]: 0.3 fold
B18: H183/L072 VL V94L (antibody, name in Kabat numbering, V domains shown)
VH: B1 VH with A27F
VL: B1 VL with V99L

- fold change of affinity [2]: 0 fold
B20: H183/L072 VL Y32N (antibody, name in Kabat numbering, V domains shown)
VH: B1 VH with A27F
VL: B1 VL with Y37N

- fold change of affinity [2]: 0 fold
B22: H183/L072 VL Y32G (antibody, name in Kabat numbering, V domains shown)
VH: B1 VH with A27F
VL: B1 VL with Y37G

- fold change of affinity [2]: 0 fold
B24: H183/L072 VL Y32L (antibody, name in Kabat numbering, V domains shown)
VH: B1 VH with A27F
VL: B1 VL with Y37L

- fold change of affinity [2]: 0.2 fold
B26: H183/L072 VL V94F (antibody, name in Kabat numbering, V domains shown)
VH: B1 VH with A27F
VL: B1 VL with V99F

- fold change of affinity [2]: 1.3 fold
B27: H183/L072 VL V94T (antibody, name in Kabat numbering, V domains shown)
VH: B1 VH with A27F
VL: B1 VL with V99T

- fold change of affinity [2]: 0.9 fold
B29: H183/L072 VL V94N (antibody, name in Kabat numbering, V domains shown)
VH: B1 VH with A27F
VL: B1 VL with V99N

- fold change of affinity [2]: 0 fold
B30: H183/L072 VL Y32K (antibody, name in Kabat numbering, V domains shown)
VH: B1 VH with A27F
VL: B1 VL with Y37K

- fold change of affinity [2]: 0.8 fold
B32: H183/L072 VL V94M (antibody, name in Kabat numbering, V domains shown)
VH: B1 VH with A27F
VL: B1 VL with V99M

- fold change of affinity [2]: 0 fold
B33: H183/L072 VL Y32S (antibody, name in Kabat numbering, V domains shown)
VH: B1 VH with A27F
VL: B1 VL with Y37S

- fold change of affinity [2]: 1 fold
B36: H183/L072 VL V94Q (antibody, name in Kabat numbering, V domains shown)
VH: B1 VH with A27F
VL: B1 VL with V99Q

- fold change of affinity [2]: 0 fold
B37: H183/L072 VL Y32A (antibody, name in Kabat numbering, V domains shown)
VH: B1 VH with A27F
VL: B1 VL with Y37A

- fold change of affinity [2]: 0 fold
B38: H183/L072 VL Y32D (antibody, name in Kabat numbering, V domains shown)
VH: B1 VH with A27F
VL: B1 VL with Y37D

- fold change of affinity [2]: 0 fold
B40: H183/L072 VL Y32E (antibody, name in Kabat numbering, V domains shown)
VH: B1 VH with A27F
VL: B1 VL with Y37E

- fold change of affinity [2]: 0.4 fold
B41: H183/L072 VL V94E (antibody, name in Kabat numbering, V domains shown)
VH: B1 VH with A27F
VL: B1 VL with V99E

- fold change of affinity [2]: 0 fold
B42: H183/L072 VL Y32H (antibody, name in Kabat numbering, V domains shown)
VH: B1 VH with A27F
VL: B1 VL with Y37H
